From patent US5723594, “High affinity PDGF nucleic acid ligands” (NeXstar Pharmaceuticals, Inc.)

Key:
Conditions in all cases: tags: R&D Systems, carrier-free, E. coli produced; chain copies: 2 (homodimer, inferred); label: 5'-32P; three-way helix junction
[1] = biological target: T1, PDGF-BB (Homo sapiens, UniProt P01127 P01127:82-190); test: cell_activity; slightly more efficient than 36t; thymidine incorporation
Method: (§1) The incorporation of [^3H]thymidine into PAE cells expressing PDGF β-receptor in response to 20 ng/ml of PDGF-BB or 10% fetal calf serum and in the presence of different concentrations of DNA ligands was performed as described (Mori et al., (1991) *J. Biol. Chem.* 266, 21158–21164). After incubation for 24 h at 37° C., ^3H-radioactivity incorporated into DNA was determined using a β-counter.
(§2) We furthermore investigated the ability of the DNA ligands to inhibit the mitogenic effects of PDGF-BB on PAE cells expressing PDGF β-receptors. […] The control ligand T39 had no effect. Moreover, none of the ligands inhibited the stimulatory effects of fetal calf serum on [^3H]thymidine incorporation in these cells, showing that the inhibitory effects are specific for PDGF.

[2] = biological target: T1, PDGF-BB; test: cell_activity; slightly less efficient than 36t; thymidine incorporation
Method: as §1, §2

[3] = biological target: T1, PDGF-BB; test: cell_activity; inhibition of thymidine incorporation in PAE cells expressing PDGF beta-receptor, 20 ng/ml PDGF-BB
Method: as §1, §2

T1 sequence (P01127 82-190, one chain of several): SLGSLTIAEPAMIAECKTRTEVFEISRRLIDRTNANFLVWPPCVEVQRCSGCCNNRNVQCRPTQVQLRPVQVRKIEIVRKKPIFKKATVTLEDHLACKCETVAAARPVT

In the case of TACTCAGGGCACTGCAAGCAATTGTGGTCCCAATGGGCTGAGTAT (ssDNA, 3'-3' linked inverted T at 3' end) [41t], the IC50 [1] is reported as under 2.5 nM.

Work on TGGGAGGGCGCGTTCTTCGTGGTTACTTTTAGTCCCGT (ssDNA, 3'-3' linked inverted T at 3' end) [20t] yielded an IC50 [2] of over 2.5 nM.

In the case of CACAGGCTACGGCACGTAGAGCATCACCATGATCCTGTGT (ssDNA, 3'-3' linked inverted T at 3' end) [36t], the IC50 [3] is reported as 2.5 nM.
